In paper PMC3718980 (The Journal of Cell Biology, 2013):
Numbering of substitutions follows the chain as printed.

T1: GST-CERMAD of wild-type Moesin (residues 483–578) (Drosophila melanogaster, UniProt P46150 483-578)
T1 sequence (looked up): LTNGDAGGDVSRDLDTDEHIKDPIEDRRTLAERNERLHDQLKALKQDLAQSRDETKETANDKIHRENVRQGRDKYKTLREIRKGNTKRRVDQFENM

B1: FERM domain of Drosophila Moesin, wild type (domain or fragment, Drosophila melanogaster, UniProt P46150 1-296, looked up)
chain: MSPKALNVRVTTMDAELEFAIQSTTTGKQLFDQVVKTIGLREVWFFGLQYTDSKGDSTWIKLYKKVMNQDVKKENPLQFRFRAKFYPEDVAEELIQDITLRLFYLQVKNAILTDEIYCPPETSVLLASYAVQARHGDHNKTTHTAGFLANDRLLPQRVIDQHKMSKDEWEQSIMTWWQEHRSMLREDAMMEYLKIAQDLEMYGVNYFEIRNKKGTDLWLGVDALGLNIYEQDDRLTPKIGFPWSEIRNISFSEKKFIIKPIDKKAPDFMFFAPRVRINKRILALCMGNHELYMRRR
B2: FERM-K212,213M of Drosophila Moesin (domain or fragment, Drosophila melanogaster, UniProt P46150 1-296, looked up)
chain: B1 chain with K212M, K213M

Experiments:
[1] = target: microtubules (polymerized with GMPCPP, in taxol); experiment: co-sedimentation
[2] = target: T1, GST-CERMAD of wild-type Moesin …; experiment: pull-down
[3] = target: microtubules (polymerized with GMPCPP, in taxol); experiment: co-sedimentation; remark: listed apart in the source

Molecule | Kd [1] [µM] | stoichiometry N [2] | fold reduction in the apparent Kd against FERM wild type [3] [fold]
Moesin1–559 (Drosophila Moesin with the C-terminal 19 amino acids deleted) (from UniProt P46150 1-559) (domain or fragment) | 1.9 |  | 
B1 |  | 1 | 
B2 |  | 1 | 3.6
